# Measurements from the supplement of paper PMC10065799, “High-throughput profiling of sequence recognition by tyrosine kinases and SH2 domains using bacterial peptide display” (eLife, 2023).
# Target: Hck (UniProt P08631)
# Experiment: phosphorylation enrichment, bacterial display (enrichment ratio); higher = better substrate or ligand; peptides without Tyr show the background
# 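Further: 11-residue human phosphosite peptides and single-mutation variants displayed on the E. coli surface, counted by deep sequencing, each peptide's frequency after selection divided by its frequency in the unselected input library; frequency after pTyr selection over input frequency; kinase dosed for 20-30% of maximal phosphorylation in three min.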
# Chain of Hck (P08631 whole entry, looked up): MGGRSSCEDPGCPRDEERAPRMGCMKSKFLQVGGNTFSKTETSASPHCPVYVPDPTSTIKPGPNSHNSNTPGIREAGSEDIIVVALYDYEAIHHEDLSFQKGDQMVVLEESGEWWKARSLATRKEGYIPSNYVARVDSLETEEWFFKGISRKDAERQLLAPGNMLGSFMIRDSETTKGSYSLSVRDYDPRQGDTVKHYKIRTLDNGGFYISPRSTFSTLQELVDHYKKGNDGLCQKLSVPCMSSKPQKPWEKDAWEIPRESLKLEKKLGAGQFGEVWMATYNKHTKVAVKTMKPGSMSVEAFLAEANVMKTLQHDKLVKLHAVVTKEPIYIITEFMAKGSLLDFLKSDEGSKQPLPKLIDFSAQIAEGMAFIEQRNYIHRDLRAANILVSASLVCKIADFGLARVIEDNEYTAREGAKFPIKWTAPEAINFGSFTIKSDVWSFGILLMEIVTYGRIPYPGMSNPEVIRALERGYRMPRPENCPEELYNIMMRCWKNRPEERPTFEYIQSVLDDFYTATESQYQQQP
row,Sequence,phosphorylation enrichment
1,KWRGQYDVANK [BTK_Y425_I429N],0.445
2,VNTMLYEKFTY [TEK_Y1108_T1106M],7.18
3,VDLSKYITTIA [FAS_Y232],0.407
4,FEPWVYSFSYE [PRKDC_Y647],2.94
5,RPSGRYPVARR [SHANK3_Y1569],0.767
6,ISDDNYGRIRL [ARCN1_Y310_K309N],1.83
7,NFYEYYVDDPL [GCHFR_Y48_P53L],2.29
8,KSPDSYQKILF [ATM_Y1415_L1420F],0.406
9,KTNVSYCGALD [CACNB4_Y103],0.503
10,SVTCTYSPAFN [TP53_Y126_L130F],0.592
11,ERLWDCGMSSS [F8_Y1728_Y1728C],0.451
12,INSLKYAYNVS [EIF2B5_Y583_I587V],0.424
13,PYSEPYADYGG [APBA1_Y187],1.41
14,MIRSTYALGGL [CPS1_Y590_A589T],0.487
15,LEITWYPFDVE [RIPOR2_Y316],0.691
16,GRFCGYKSKHG [EPHA3_Y570],0.377
17,VSTAVYKRFPS [BEST1_Y148],0.426

row,Sequence,phosphorylation enrichment
1,TENAGYYFQVS,0.563
2,EAIMTYVSSFY [ACTN4_Y260_K255E],0.631
3,NPQKSYFIHLY [WAS_Y83_R86H],0.559
4,VITDFYVDMKF [MPP4_Y567_YF],0.624
5,FIATQYSLCPR [LBR_Y166_R169C_YF],0.749
6,QLRPGYIPIPV [BAG3_Y93],0.639
7,FADIAYIYRHG [PAH_Y166_N167I],0.445
8,IGGHAYGDQYR [IDH1_Y135_R132G],0.428
9,CFTGKYTLPPG [HSPB1_Y142_R140G],0.519
10,VAVTKYCKEEL [ATP7B_Y1078],0.593
11,RSACTYLASHL [PLK3_Y615],0.4
12,TSSAGYRAAEG [COL6A3_Y543],0.379
13,ARQEEYSAMRD [KRAS_Y64_G60R],0.488
14,TRYDEYLEVTK [MAP1A_Y2217_H2214Y],0.539
15,PLQNTYNFNVL [SLC4A1_Y553_K551N_YF],0.57
16,RLLRGYDQFAY [HLA-C_Y137_S140F],0.49

# Target: FGFR1 (UniProt P11362)
# Sequence (P11362 whole entry, looked up): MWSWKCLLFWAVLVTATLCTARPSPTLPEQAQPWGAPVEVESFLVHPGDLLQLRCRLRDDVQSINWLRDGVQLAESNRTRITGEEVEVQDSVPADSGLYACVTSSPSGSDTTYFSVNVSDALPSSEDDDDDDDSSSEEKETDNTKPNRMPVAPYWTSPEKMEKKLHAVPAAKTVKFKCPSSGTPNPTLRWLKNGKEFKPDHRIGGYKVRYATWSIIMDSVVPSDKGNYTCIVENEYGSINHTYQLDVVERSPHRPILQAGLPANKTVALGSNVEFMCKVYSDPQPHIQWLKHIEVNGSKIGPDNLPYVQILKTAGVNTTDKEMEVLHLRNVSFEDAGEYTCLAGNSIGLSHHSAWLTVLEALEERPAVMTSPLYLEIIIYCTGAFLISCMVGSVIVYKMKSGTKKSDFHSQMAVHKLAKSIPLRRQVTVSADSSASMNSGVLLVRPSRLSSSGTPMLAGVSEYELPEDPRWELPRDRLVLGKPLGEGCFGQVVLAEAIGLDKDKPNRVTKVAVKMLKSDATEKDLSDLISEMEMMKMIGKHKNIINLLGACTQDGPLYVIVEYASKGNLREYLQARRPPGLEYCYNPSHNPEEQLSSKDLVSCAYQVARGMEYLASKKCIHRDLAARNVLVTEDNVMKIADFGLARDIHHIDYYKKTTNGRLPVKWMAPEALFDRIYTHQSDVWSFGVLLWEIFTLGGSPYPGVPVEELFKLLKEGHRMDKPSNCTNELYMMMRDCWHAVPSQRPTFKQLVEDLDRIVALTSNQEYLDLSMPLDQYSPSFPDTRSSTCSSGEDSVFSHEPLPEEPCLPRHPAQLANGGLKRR
# Experiment: as above
row,Sequence,phosphorylation enrichment
1,KWRGQYDVANK [BTK_Y425_I429N],0.439
2,VNTMLYEKFTY [TEK_Y1108_T1106M],0.856
3,VDLSKYITTIA [FAS_Y232],0.363
4,FEPWVYSFSYE [PRKDC_Y647],0.655
5,RPSGRYPVARR [SHANK3_Y1569],0.669
6,ISDDNYGRIRL [ARCN1_Y310_K309N],0.407
7,NFYEYYVDDPL [GCHFR_Y48_P53L],7.28
8,KSPDSYQKILF [ATM_Y1415_L1420F],0.509
9,KTNVSYCGALD [CACNB4_Y103],0.494
10,SVTCTYSPAFN [TP53_Y126_L130F],0.49
11,ERLWDCGMSSS [F8_Y1728_Y1728C],0.553
12,INSLKYAYNVS [EIF2B5_Y583_I587V],0.522
13,PYSEPYADYGG [APBA1_Y187],3.21
14,MIRSTYALGGL [CPS1_Y590_A589T],0.774
15,LEITWYPFDVE [RIPOR2_Y316],0.679
16,GRFCGYKSKHG [EPHA3_Y570],0.374
17,VSTAVYKRFPS [BEST1_Y148],0.498

row,Sequence,phosphorylation enrichment
1,TENAGYYFQVS,2
2,EAIMTYVSSFY [ACTN4_Y260_K255E],0.459
3,NPQKSYFIHLY [WAS_Y83_R86H],0.46
4,VITDFYVDMKF [MPP4_Y567_YF],1.42
5,FIATQYSLCPR [LBR_Y166_R169C_YF],0.475
6,QLRPGYIPIPV [BAG3_Y93],0.735
7,FADIAYIYRHG [PAH_Y166_N167I],0.616
8,IGGHAYGDQYR [IDH1_Y135_R132G],0.364
9,CFTGKYTLPPG [HSPB1_Y142_R140G],0.447
10,VAVTKYCKEEL [ATP7B_Y1078],0.498
11,RSACTYLASHL [PLK3_Y615],0.509
12,TSSAGYRAAEG [COL6A3_Y543],0.573
13,ARQEEYSAMRD [KRAS_Y64_G60R],0.518
14,TRYDEYLEVTK [MAP1A_Y2217_H2214Y],0.901
15,PLQNTYNFNVL [SLC4A1_Y553_K551N_YF],0.803
16,RLLRGYDQFAY [HLA-C_Y137_S140F],0.49
